Patent US20240218065A1 (SHENGHE CHINA BIOPHARMACEUTICAL, published 2024)

T1: Human-NKP30-His (Kactus, cat: NKP-HM430) (human, UniProt O14931 19-138, limits assumed)
T1 construct: also called NKP30 protein; NKP30-his protein; not shown: His tag
T1 sequence (looked up): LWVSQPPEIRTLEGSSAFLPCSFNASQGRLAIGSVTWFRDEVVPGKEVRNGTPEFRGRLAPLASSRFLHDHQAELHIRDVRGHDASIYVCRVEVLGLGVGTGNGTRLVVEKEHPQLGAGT

T2: huCD24-humanFC (Acro, cat: CD4-H5254) (human, UniProt P25063 27-59)
T2 construct: also called CD24 protein; not shown: human Fc
T2 chain (looked up): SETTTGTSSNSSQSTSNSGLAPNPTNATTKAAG

B1: DN15-B (bispecific antibody, human IgG1, kappa)
light: DIQMTQSPSTLSASVGDRVTITCSASSSVSSMHWYQQKPGKAPKLLIYSTSNLASGVPSRFSGSGSGTEYTLTISSLQPDDFATYYCHHWTSYMYTFGGGTKVEIKRTVAAPSVFIFPPSDEQLKSGTASVVCLLNNFYPREAKVQWKVDNALQSGNSQESVTEQDSKDSTYSLSSTLTLSKADYEKHKVYACEVTHQGLSSPVTKSFNRGEC
heavy 1: not shown
heavy 2: EVQLVESGGGLVQPGGSLRLSCAASGITFSRSVMGWFRQAPGKLRELVAGITSDDNTDYADSVKGRFTISRDNSKNTLYLQMNSLRAEDTAVYYCNILPDSRLGWGQGTLVTVSSGGGGSGGGGSGGGGSQVQLVQSGSELKKPGASVKVSCKASGYIFTDYAIHWVRQAPGQGLEWMGFINTATGEPTYADDFKGRFVFSLDTSVSTAYLQISSLKAEDTAVYFCTSGVHWGQGTLVTVSSASTKGPSVFPLAPSSKSTSGGTAALGCLVKDYFPEPVTVSWNSGALTSGVHTFPAVLQSSGLYSLSSVVTVPSSSLGTQTYICNVNHKPSNTKVDKKVEPKSCDKTHTCPPCPGGGGSGGGGSPALLLLLLLRPPATRGITCPPPMSVEHADIWVKSYSLYSRERYICNSGFKRKAGTSSLTECVLNKATNVAHWTTPSLKCIRDPALVHQRPAPPSTVTTAGVTPQPESLSPSGKEGGGGSGGGGSAPELLGGPSVFLFPPKPKDTLMISRTPEVTCVVVDVSHEDPEVKFNWYVDGVEVHNAKTKPREEQYNSTYRVVSVLTVLHQDWLNGKEYKCKVSNKALPAPIEKTISKAKGQPREPQVYTLPPSRDELTKNQVSLTCLVKGFYPSDIAVEWESNGQPENNYKTTPPVLDSDGSFFLASKLTVDKSRWQQGNVFSCSVMHEALHNHYTQKSLSLSPGK
notes: Trifunctional antibody against CD24 and NKP30 with IL-15 and IL-15Rα sushi between CH1 and CH2; also called constructed antibody DN15-B; multifunctional antibody
B2: DN15-D (bispecific antibody, human IgG1, kappa)
light: B1 light
heavy 1: not shown
heavy 2: QVQLVQSGSELKKPGASVKVSCKASGYIFTDYAIHWVRQAPGQGLEWMGFINTATGEPTYADDFKGRFVFSLDTSVSTAYLQISSLKAEDTAVYFCTSGVHWGQGTLVTVSSASTKGPSVFPLAPSSKSTSGGTAALGCLVKDYFPEPVTVSWNSGALTSGVHTFPAVLQSSGLYSLSSVVTVPSSSLGTQTYICNVNHKPSNTKVDKKVEPKSCDKTHTCPPCPGGGGSGGGGSPALLLLLLLRPPATRGITCPPPMSVEHADIWVKSYSLYSRERYICNSGFKRKAGTSSLTECVLNKATNVAHWTTPSLKCIRDPALVHQRPAPPSTVTTAGVTPQPESLSPSGKEGGGGSGGGGSAPELLGGPSVFLFPPKPKDTLMISRTPEVTCVVVDVSHEDPEVKFNWYVDGVEVHNAKTKPREEQYNSTYRVVSVLTVLHQDWLNGKEYKCKVSNKALPAPIEKTISKAKGQPREPQVYTLPPSRDELTKNQVSLTCLVKGFYPSDIAVEWESNGQPENNYKTTPPVLDSDGSFFLASKLTVDKSRWQQGNVFSCSVMHEALHNHYTQKSLSLSPGKGGGGSGGGGSGGGGSGGGGSEVQLVESGGGLVQPGGSLRLSCAASGITFSRSVMGWFRQAPGKLRELVAGITSDDNTDYADSVKGRFTISRDNSKNTLYLQMNSLRAEDTAVYYCNILPDSRLGWGQGTLVTVSS
notes: Trifunctional antibody against CD24 and NKP30 with IL-15 and IL-15Rα sushi between CH1 and CH2; also called constructed antibody DN15-D; multifunctional antibody
B3: DN15-A (bispecific antibody, human IgG1, kappa)
light: EVQLVESGGGLVQPGGSLRLSCAASGITFSRSVMGWFRQAPGKLRELVAGITSDDNTDYADSVKGRFTISRDNSKNTLYLQMNSLRAEDTAVYYCNILPDSRLGWGQGTLVTVSSGGGGSGGGGSGGGGSDIQMTQSPSTLSASVGDRVTITCSASSSVSSMHWYQQKPGKAPKLLIYSTSNLASGVPSRFSGSGSGTEYTLTISSLQPDDFATYYCHHWTSYMYTFGGGTKVEIKRTVAAPSVFIFPPSDEQLKSGTASVVCLLNNFYPREAKVQWKVDNALQSGNSQESVTEQDSKDSTYSLSSTLTLSKADYEKHKVYACEVTHQGLSSPVTKSFNRGEC
heavy 1: not shown
heavy 2: QVQLVQSGSELKKPGASVKVSCKASGYIFTDYAIHWVRQAPGQGLEWMGFINTATGEPTYADDFKGRFVFSLDTSVSTAYLQISSLKAEDTAVYFCTSGVHWGQGTLVTVSSASTKGPSVFPLAPSSKSTSGGTAALGCLVKDYFPEPVTVSWNSGALTSGVHTFPAVLQSSGLYSLSSVVTVPSSSLGTQTYICNVNHKPSNTKVDKKVEPKSCDKTHTCPPCPGGGGSGGGGSPALLLLLLLRPPATRGITCPPPMSVEHADIWVKSYSLYSRERYICNSGFKRKAGTSSLTECVLNKATNVAHWTTPSLKCIRDPALVHQRPAPPSTVTTAGVTPQPESLSPSGKEGGGGSGGGGSAPELLGGPSVFLFPPKPKDTLMISRTPEVTCVVVDVSHEDPEVKFNWYVDGVEVHNAKTKPREEQYNSTYRVVSVLTVLHQDWLNGKEYKCKVSNKALPAPIEKTISKAKGQPREPQVYTLPPSRDELTKNQVSLTCLVKGFYPSDIAVEWESNGQPENNYKTTPPVLDSDGSFFLASKLTVDKSRWQQGNVFSCSVMHEALHNHYTQKSLSLSPGK
notes: Trifunctional antibody against CD24 and NKP30 with IL-15 and IL-15Rα sushi between CH1 and CH2; also called constructed antibody DN15-A; multifunctional antibody

Target: T1, Human-NKP30-His (Kactus, cat: NKP-HM430)
Test: ELISA: Human-NKP30-His coated at 0.2 µg/mL, antibody titrated 3-fold from 10 µg/mL (7 points), HRP goat anti-human IgG-Fc, OD450-OD570
Procedure: Human-NKP30-His (Kactus, cat: NKP-HM430) was diluted to 0.2 μg/mL with PBS buffer at pH 7.4, added into the 96-well ELISA plate at 100 μL per well, coated overnight at 4° C., and blocked with 1% BSA blocking solution for 1 hour. The plate was washed 3 times with PBST, and the constructed expressing antibody was diluted to 10 μg/mL with 0.5% BSA sample diluent as the starting concentration, and then diluted by 3-fold gradient (7 gradients in total). A negative control (blank well and IgG1 isotype control) and a positive control were set, and the positive control was the NKP30 humanized antibody (sequence shown in SEQ ID No. 28), and incubated at 37° C. for 1 h at 100 μL per well. The plate was washed 3 times with PBST, and then HRP-labelled goat anti-human IgG-Fc was diluted with the sample diluent at 1:20000. 100 μL was added into each well, and incubated at room temperature for 1 hour. The plate was washed 4 times with PBST, and 100 μL of TMB substrate was added into each well, and incubated at room temperature without light for 10 minutes. 100 μL of 1 M HCl solution was added into each well to terminate the color development reaction. The absorbance value of each well in the 96-well plate was determined by selecting the wavelength of 450 nm and the reference wavelength of 570 nm on a multifunctional enzyme marker, and the absorbance value (OD)=OD₄₅₀ₙₘ−OD₅₇₀ₙₘ. The logarithm of the concentration of the constructed antibody was taken as the abscissa, and the measured absorbance value of each well was taken as the ordinate, and the Sigmoidaldose-response (Variable Slope) method (GraphPad Prism software, GraphPad Software, San Diego, California) was selected for nonlinear regression to obtain the binding curve of the target antibody to NKP30.

binding result | Binder
binds | B1
binds | B2
binds | B3

Target: T2, huCD24-humanFC (Acro, cat: CD4-H5254)
Test: Bridging ELISA: huCD24-humanFC coated at 0.3 µg/mL, antibody titrated 3-fold from 20 µg/mL, then NKP30-his at 0.3 µg/mL, HRP anti-His antibody, OD450-OD570
Procedure: The huCD24-humanFC (Acro, cat: CD4-H5254) was diluted to 0.3 μg/mL with PBS buffer at pH 7.4, added into the 96-well ELISA plate at 100 μL per well, coated overnight at 4° C., and blocked with 1% BSA blocking solution for 1 hour. The plate was washed 3 times with PBST, and the purified antibody was diluted to 20 μg/mL with 0.5% BSA sample diluent as the starting concentration, and then diluted by 3-fold gradient (11 gradients in total). An irrelevant antibody was set as the negative control and incubated at 37° C. for 1 h at 50 μL per well. The plate was washed 3 times with PBST, and the NKP30-his protein was diluted to 0.3 μg/mL. 100 μL was added into each well, and incubated at room temperature for 1 h. The plate was washed 3 times with PBST, and then HRP-labelled his antibody was diluted with the sample diluent at 1:5000. 100 μL was added into each well, and incubated at room temperature for 1 h. The plate was washed 4 times with PBST, 100 μL of TMB substrate was added into each well, and incubated at room temperature without light for 10 min. 100 μL of 1 M HCl solution was added into each well to terminate the color development reaction. The absorbance value of each well in the 96-well plate was determined by selecting the wavelength of 450 nm and the reference wavelength of 570 nm on a multifunctional enzyme marker, and the absorbance value (OD)=OD₄₅₀ₙₘ−OD₅₇₀ₙₘ. The logarithm of antibody concentration was taken as the abscissa, and the measured absorbance value of each well was taken as the ordinate, and the Sigmoidaldose-response (Variable Slope) method (GraphPad Prism software, GraphPad Software, San Diego, California) was selected for nonlinear regression to obtain the binding curve of the target antibody to CD24 and NKP30 proteins at both ends.

EC50 (read off the curve) [µg/mL] | Binder
~0.1 | B1
~0.2 | B2
~0.08 | B3
